Results taken from the DeepSol protein solubility set.

assay: soluble on expression in E. coli; label from the status in PepcDB or PDB records

| Sequence | soluble on expression in E. coli |
| --- | --- |
| MNKENIIADAPSDVVKTVQQQVHLNQDEYKYLKQVEQILREGTRRDDRTGTGTISIFGMQSKYCLRNGTIPLLTTKRVYWKGVLEELLWFISGSTDGKLLMEKNVKIWEKNGDRAFLDNLGFTSREEGDLGPVYGFQWRHFGAKYVDCHTDYSGQGVDQLAEVIRQIKEQPDSRRIIMSAWNPSDLGQMVLPPCHTMCQFYVDNGELSCQLYQRSGDMGLGVPFNLASYGLLTHMIAKVCGLKPGTLVHTLGDAHVYSNHVDALKIQLDREPYAFPKIRFTRDVASIDDFTSDMIALDDYKCHPKIPMDMAV | soluble |
| MNKFKLGSDFDHLVNSLSDVELLNLFIQSCSQTTINGVPVPRFPPEEIQKQFVGASYEHALYEAYLFYRHIKEYAQNLGVPLNKESKVLDFGCGWGRIIRFLFKDASDQNLLGIDVDPAMITLCNETLGRGIYKTASPHPPVEFISDNSLDIIFAYSVFSHLSEATAENWVKEFSRVLRPGGIFIATTQARYFLDFCQQFQEHPELIQTGWHKTLSQAFPDIHRAISDYENGKFVHSPTGAGDVRNSSFYGETVIPRTYIENHYEKYLKLQDFFDDVNRLPQALFVLQKILEHHHHHH | not soluble |
| MNKGRVTQIMGPVVDVKFDGGKLPEIYNALTVKQSNENGTSINLTFEVALHLGDDTVRTVAMSSTDGLVRGTEVEDTGKAISVPVGDATLGRVFNVLGDAIDLDGEVPADVRRDPIHRQAPAFEELSTKVEILETGIKVVDLLAPYIKGGKIGLFGGAGVGKTVLIQELINNIAQEHGGISVFAGVGERTREGNDLYHEMSDSGVIKKTAMVFGQMNEPPGARQRVALTGLTMAEHFRDEQGQDVLLFIDNIFRFTQAGSEVSALLGRMPSAVGYQPTLATEMGQLQERITSTNKGSITSIQAVYVPADDYTDPAPATTFAHLDATTNLERRLTQMGIYPAVDPLASTSRALSPEIVGEEHYEVARQVQQTLQRYKELQDIIAILGMDELSEEDKLVVHRARRIQFFLSQNFHVAEQFTGQKGSYVPVKETVRGFKEILEGKYDDLPEDAFRLVGGIEEVIENAKKMMA | not soluble |
| MNKIYIKNMVCDRCIMVVTNILSQLELKVAHIALGEIVLLCPPTEKQMQELLDQLQKVGFEIIDDKRSRIVEQIKTCIRELVHRKNGMLKTNLSDYLCENIHLDYSYLSGLFSENEGRTIEKYFIYQKIERVKELLVYDDMQLSEIAYIMNYSSVAHLSNQFKKVTGFTPTYFKQMSTQCRKPLDKL | not soluble |
| MNKKVGESTLYEWLVSYQKLEQEIYYLDWELETYKKELERWCDPEDLGRYTLTKDSKASKLEDIIEDLEKRLAWKMNSIYDLRKLVYSFKGLDQKILVAKYIEGLSLKQIAGEFGHSYGYIRNKHNQILKKIEKSDNDVTIPIDKS | not soluble |
| MNKQRLITELQSKGLRLVDPNAKDLGRKGGAGPSDHRAVTVDGTTVMVPIYTSTAAASPYSINLASMPPKTVLSKGDEEIAAIALPRQPKFYDLKTADGIPYSHIALLHSNNVLATTVQQTCIRYRDESTVCQFCAIEKSLDAGRTITRKLPEQLAEVTEAAVRLDGIEQVIMTTGTPNSGDRGAAYLTKCAAAIKARVNIPIQAQCEPPDDFIWFERMKAAGVDSLGMHLEAVDPDVRAKIMPGKAEVPVSYYYEAYEAAVKVFGWGQVSTYLLAGLGDSFETLVEASEKLVNMGVYPFVVPFVPISETPLANHPAPDSDFMFALYQRVGTIIKQSQISSVDMKAGCAKCGACSALSTFAKLEHHHHHH | not soluble |
| MNLDAPRVLVLNAAYEVLGLASIKRAVLLVLGGGAEMVSESGLYLNTPSTRIPVPSVVRLKRMVRRRPGRVPLNRRNVLRRDRYTCQYCGQKGGELTVDHVLPKSRGGKSTWDNLVAACRSCNLRKGDRTPEEAGMRLLRPPKPPRVPLFLLDLKEVPPDWRPFVEGLLGLEHHHHHH | not soluble |
| MNLEHHSNHYQPTCSIEALQARAKLYQTIRTFFAERGVLEVETPIISQAGVTDVHLASVKALRHIEGKERTQYLQTSPEFAMKRLLASGSGPIYQLCKVFRDDEHGRKHNSEFTMLEWYRPEFDLKDLMHETADLLETCLKQRFDEIRPMILSYKHAFQDRLEINPLQATLKQLKDTADRVGLNLDLGNDRLAYIDLLFSHIVEPSLGFDTPVFLTDFPPEMASLAKVRIDEDGEEVAARFEVYIEGLELANAYDELLDANILRARFEADNLERKLQGLAEMPLDENLLAALPHMPACAGIALGVDRLLMIATRQLKIEQVIAFPAAIA | not soluble |
| MNLESITVVLPTRNEAGNIGAFLASLPQAVHLIVVDASEDETPDIIQRERPARTQVLRRRSTITQARQLGAEAALTDWLLFTDADIVFPDGYFDALERVMDAAVVYGPKLSRDRFAAYYRWFGYGQQCSHWLGIPAATGSNLLVRKDALIAVGGFDPALVCNEDSELVWRIKRAGYRIRFEPSLPVYARDHRRLDSGLWRKTCHSVFRCALLYWDLMPARWRGADWGYWSPQQSGRAPGVSRVELEHHHHHH | not soluble |
| MNLGTLVSETRNPQTMDLDALPTPELVKRFNEQDTLVAEAVKATLPDVARAVDAAAAALKSGGRIIYMGAGTSGRLGVLDASECPPTFGVPHGLVVGLIAGGPGALLKAVEGAEDSQQAGEDDLVALNLQEQDLVVGLAASGRTPYVIGGLRYARQSGCTTVAVSCNPDSPIAREANIAISPVVGPEALTGSTRLKSGTAQKMVLNMISTGAMVKFGKVYQNLMVDMKATNVKLVDRACRMVVEATGIGREEAEALLKQTDFEVKPAILMALTGLDAAAAREKLAAHQGFLRAALEH | not soluble |
| MNLHTKTWVQRLPVPIDVAWDFFSQPGNLARITPPEMMLKAEGGNAGTAIYEGMKLNFVLYPFMMIPVRWTTEIMKVSKPDFFEDRQLSGPYEQWYHRHLFRDIEGGTEMTDIVEYALPFDLFGEVVEALIVGPRLDEVFEYRRCRVAEILGEMASETRLEHHHHHH | soluble |
| MNLIEKTREFAATFHEGEPSSHDMSHINRVEALCMEIQKEEGGDLLILSLAALLHDVGVIKEHEEGGDHALYSSEIAIEFLSRAGVEMKTIEAVAYCIQTHRFSGGKRPETVEARILQDADRLDALGAIGIFRSILSMGALRMLKHTTGLDKGSSKKTVYIEDPVEGFNEYMRYKPFTIPERLNTVTAKRIAGERLKIMHIYLEALNLEAGNGKHKPLEHHHHHH | soluble |
| MNLKDPICAIATPPGKGAIGVVRLSGEGALEIAARVWRGKDPRRLKGGRFALGEVVDPKTGEAIDQAILLVFRAPRSYTGEDLVEFQTHGSPAVLRRVMEVLVAEGARPAGRGEFTFRAYLNGKMDLAQAEAVLALIEAEGELARRQALRALEGALSRRIEALENRLLNLLAHIQALLDYPEEGVEPLEAERTIREVLAEVEALLAQAKASRLAQKGARLALIGAPNAGKSSLLNALLGYERALVSPIPGTTRDYLEAPLELFGIPLVAVDTAGVRETEDPVERMGVERALGIAEEADLVLYVVDRSQPKPAPPPLPWARTLKVATKSDLPPAWEDPEFLPVSSLTGEGLDRLKEAVREALLGREGGEVLLTERQVEALLRARERLEEALSLPEDLMGLALEEAARALALLTGKEVAEEVVARVFQNFCVGK | soluble |
| MNLMTTITGVVLAGGKARRMGGVDKGLLELNGKPLWQHVADALMTQLSHVVVNANRHQEIYQASGLKVIEDSLADYPGPLAGMLSVMQQEAGEWFLFCPCDTPYIPPDLAARLNHQRKDAPVVWVHDGERDHPTIALVNRAIEPLLLEYLQAGERRVMVFMRLAGGHAVDFSDHKDAFVNVNTPEELARWQEKRSHHHHHH | soluble |
| MNLYRSRNFYARIRGDRALFTNPATKGGSERSSYSVPTRQALQGIIDGIYHKPTFTNVITEVKVVNQIQTELHGVRALLHDYSADLSYVSYLSDVEYLVKFHFIWNENREDLIQDRLPKKHEAIMERSIRKGGRRDIFLGTRECFGLVDEISQEEYETIPSYYNGVTIDLGIMFHSFAYPTSKDTPLKSYFTKTVMENGAIKFKPQSECEIVNTLSSYAFKSLGQLKSVDDEYVDDEYEEYEAMEKGEG | soluble |
| MNMNKTYIPKLDDLLGGGVKEGASIMFSASPGVDYEAFGYQMLNGRLDEGTRGFIFTNVEEPESIIYEFRSYGWDIESHIENGNLFFVDGSSPFLGMPSDQRYTVNDYSEIKDVVLNAINDIPGGVGIINNLSVIIDYLGNGDTLEIVEAWNRRASELDVNLVYLFTEWDYEPELIDKLRESMDCVVNLRTIEERVIIGQGFMVANSAWSEPPSTMVLFFVVQPGGVKVYVPKILVTGPYNSGKSSFVRAIATKSVSVDRKALSAFPTTIAMDIGHLEYKGFMADIFGTPGQERFDMILDVLSREAVGAFILLDSTAPETFARAKEMIRKTRAEAIPKVVVANKQDLPGALSPEEIREMMKLGADVPIVPASVTEGWGVRDALDTLLGLLYGGLEHHHHHH | not soluble |
| MNMSSEMLPASIESPNVEEKLGTSDGEEERQEPRVDAGAEPISKRQLKKLMKQKQWEEQREQRKEKRKEKRKRKKLERRQLESNSDGNDRKRVRRDVARSSLRLVIDCSFDDLMVLKDIKKLHKQIQRCYAENRRASHPVQFYLTSHGGQLKKNMDENDQGWVNWKDIHIKSEHYSELIKKEDLVYLTSDSPNVLKDLDESKAYVIGGLVDHSHHKGLTFKQATSYGIEHAQLPLADFVKMNSRKVLAVNHVFEIILEFLETRDWQEAFFTILPQRKGAVPAHKACESSPQDHQSLPEGWDSASEGESCRDNPDSPQKDEQGQQSSPVLQ | soluble |
| MNMVAQQMPSPEEIAAQLQMIRDQIAELQGVLAQLELRLRSVQAAKETVEKAAGQDGETLFPGDPELNTILKARLLEPGKAIVHLGLNVYAKLDTAKATEILAKKEDALKRSLETLKQELDKLSRTHDQYLQLLQALTAGQAAQQAGQQQKQGS | soluble |
| MNNEPLRPDPDRLLEQTAAPHRGKLKVFFGACAGVGKTWAMLAEAQRLRAQGLDIVVGVVETHGRKDTAAMLEGLAVLPLKRQAYRGRHISEFDLDAALARRPALILMDELAHSNAPGSRHPKRWQDIEELLEAGIDVFTTVNVQHLESLNDVVSGVTGIQVRETVPDPFFDAADDVVLVDLPPDDLRQRLKEGKVYIAGQAERAIEHFFRKGNLIALRELALRRTADRVDEQMRAWRGHPGEEKVWHTRDAILLCIGHNTGSEKLVRAAARLASRLGSVWHAVYVETPALHRLPEKKRRAILSALRLAQELGAETATLSDPAEEKAVVRYAREHNLGKIILGRPASRRWWRRETFADRLARIAPDLDQVLVALDEPPAR | soluble |
| MNNHFGKGLMAGLHAPYAYSAHHAVNFCSEYKRGFVLGFTHRMFEKTGDRQLSAWEAGILTRRYGLDKEMVMDFFKENHSGMAVRFFMAGYRLEG | not soluble |
| MNNKRTKGENVYQLVQKRLKFLFNEFDNIYVSFSGGKDSGVLLNLCIQYIREHNLDRKIGVYHMDYEAQYQMTTEYVEQTFRENQDILEIYHVCVPFKVVTCASMFQTYWRPWDESMHAHWVRPMPKNCYKKEDFPFYNEEMWDYTFQTSFASWYHKKHDAVRTCCLVGIRTQESLDRWRTIHGNNRLNSYHNLMWTRRLGYDLYNAYPIYDWTTEDIWTAYARFKWPFNQMYELYYK | not soluble |
| MNNPKPCEWKSNELSRGYIADYKAFNFVDGEGVRCSLYVSGCPFHCEGCYNKAAQSFKYGKPYTKELEDDILKDIGHESVQGLTLLGGEPFLNTATCLSIVKRIRATYGETKDIWSWTGYTWDEMMQETADKLELLSLIDVLVDGRFEQKLFDPNLAFRGSSNQRIIDVQKSLAAGEVVLYELLEHHHHHH | not soluble |
